± gives the uncertainty stated by the source.
B1: Nuclear receptor subfamily 1 group D member 2, residues 103 to 171; numbered along this chain, Q14995 (parent)
chain: CKVCGDVASGFHYGVHACEGCKGFFRRSIQQNIQYKKCLKNENCSIMRMNRNRCQQCRFKKCLSVGMSR

Variants of: B1
Assay: abundance fitness (aPCA) (normalised: wild type 0, dead -1); higher = more abundant; growth selection in yeast, the domain comes from the species named
Details: Homo sapiens

Row | Variant | abundance fitness
1 | CKVCGDVASGFHYGVHACESCKGFFRRSIQQNIQYKKCLKNENCSIMRMNRNRCQQCRFKKCLSVGMSR [G20S] | 0.212 ± 0.27
2 | CKVCGDVASGFHYGVHACEGCKGFFRRSIQQSIQYKKCLKNENCSIMRMNRNRCQQCRFKKCLSVGMSR [N32S] | -0.381 ± 0.072
3 | CKVCGDVASGFHYGVHACEGCKGLFRRSIQQNIQYKKCLKNENCSIMRMNRNRCQQCRFKKCLSVGMSR [F24L] | -0.272 ± 0.16
4 | CKVCGDVASGFHYGVHACEGCKGFFRRSIQQNIQYKKCLKNENCSIMRMNRNRCQQCRFKKCLFVGMSR [S64F] | -0.545 ± 0.15
5 | CKVCGDVASGFHYGVHACEGCKGFFRRSIQQNIQYKKCLKNENCSIMRMNRNRCQQCEFKKCLSVGMSR [R58E] | -0.474 ± 0.33
6 | CKVCVDVASGFHYGVHACEGCKGFFRRSIQQNIQYKKCLKNENCSIMRMNRNRCQQCRFKKCLSVGMSR [G5V] | -0.815 ± 0.11
7 | CKVCGDVASGFHYGVHACEGCKGFFRRSIQQNIQYKKCLKNENCSIMRMNRNRCQQCRFKKCLSVGMPR [S68P] | -0.768 ± 0.19
8 | CKVCGVVASGFHYGVHACEGCKGFFRRSIQQNIQYKKCLKNENCSIMRMNRNRCQQCRFKKCLSVGMSR [D6V] | -0.56 ± 0.34
9 | CKVCGDVASGFHYGVHACEGCKGFFRRSIQQNIQYKKCLKNENCSHMRMNRNRCQQCRFKKCLSVGMSR [I46H] | -0.162 ± 0.22
10 | CKVCGDVVSGFHYGVHACEGCKGFFRRSIQQNIQYKKCLKNENCSIMRMNRNRCQQCRFKKCLSVGMSR [A8V] | -0.798 ± 0.15
11 | CKVCGDVASGFHYGVHACEGCKGFFRRSIQQFIQYKKCLKNENCSIMRMNRNRCQQCRFKKCLSVGMSR [N32F] | -0.408 ± 0.14
12 | CKVCGDVASGFHYGVHACEGCKGFFRRSIQQNIQYKKTLKNENCSIMRMNRNRCQQCRFKKCLSVGMSR [C38T] | -0.768 ± 0.26
13 | CKVCGDVASGFHYGVHACEGCKGFFRRSIQQNIQYKKCLKNESCSIMRMNRNRCQQCRFKKCLSVGMSR [N43S] | -0.317 ± 0.094
14 | CKVCGDVASGFHYGVHACEGCKGFFRRSIQQNIQYKKCLKNENCSIMRMNRNRCQQCYFKKCLSVGMSR [R58Y] | -0.055 ± 0.18
15 | CKVCGDVASGFHYGVHACEGCKGFFRRSIQQNIQYKKCLKNENCSIMRMNTNRCQQCRFKKCLSVGMSR [R51T] | -0.214 ± 0.41
16 | CKVCGDVASGFHYGVHACEGCKGFFRRSIDQNIQYKKCLKNENCSIMRMNRNRCQQCRFKKCLSVGMSR [Q30D] | 0.022 ± 0.16
17 | CKVCGDVASGFHYGVHACEGCKGFFRRSIQQNIQYKKCLKNENCSIMRMNRNWCQQCRFKKCLSVGMSR [R53W] | 0.14 ± 0.068
18 | CKVCGDVASGFHYGVHACEGCKGFFRRSIQQNIQYKKCLKNENCSIMRMNRNNCQQCRFKKCLSVGMSR [R53N] | 0.332 ± 0.15
19 | CKVCGDVASGFHYGVHACEGCKGFFRRSIQQNIQYKKCLKNENCSIMRMNRNRCQQCRFKKRLSVGMSR [C62R] | -0.667 ± 0.19
20 | CSVCGDVASGFHYGVHACEGCKGFFRRSIQQNIQYKKCLKNENCSIMRMNRNRCQQCRFKKCLSVGMSR [K2S] | -0.336 ± 0.047

Row | Variant | abundance fitness
21 | CKVCGDVASGFHYGVHACEGCKGFFRRSIQQNIQYKKCLKCENCSIMRMNRNRCQQCRFKKCLSVGMSR [N41C] | -0.738 ± 0.19
22 | CKVCGDVASGFHYGVHACEGCKGFFRRSSQQNIQYKKCLKNENCSIMRMNRNRCQQCRFKKCLSVGMSR [I29S] | -0.7 ± 0.067
23 | CKVCGDVASGFHYGVHACEGCKGFFRRSIQQNIQYKKCLKNENCSQMRMNRNRCQQCRFKKCLSVGMSR [I46Q] | -0.39 ± 0.44
24 | CKVCGDVASGFHYGQHACEGCKGFFRRSIQQNIQYKKCLKNENCSIMRMNRNRCQQCRFKKCLSVGMSR [V15Q] | -0.744 ± 0.2
25 | CKVCGDVASGFHYGVHACEGCKGFFRRSIQQNIQYKKCLMNENCSIMRMNRNRCQQCRFKKCLSVGMSR [K40M] | -0.059 ± 0.11
26 | CKVCGDVASGFHYGVHACEGCKGFFRRSIQQNIQYKKCLKNENCSIMYMNRNRCQQCRFKKCLSVGMSR [R48Y] | 0.066 ± 0.25
27 | CKVCGDVASGFHYGVHACEGCKGFFRRSIQQNIQYKKCLKNHNCSIMRMNRNRCQQCRFKKCLSVGMSR [E42H] | -0.231 ± 0.19
28 | CKVCGDVASGFHSGVHACEGCKGFFRRSIQQNIQYKKCLKNENCSIMRMNRNRCQQCRFKKCLSVGMSR [Y13S] | -0.576 ± 0.071
29 | CKVCGDVASGFHYGVHACEGCKGFFRRSIQQNIQYKKCLKNENCSIMRMNRPRCQQCRFKKCLSVGMSR [N52P] | -0.698 ± 0.46
30 | CKVCGDVASGFHYGVHACEGCKGFFRRSIQQNIQYKKCLKNENCSIMRMNRNRCQQCNFKKCLSVGMSR [R58N] | -0.759 ± 0.17
31 | CKVCGDVASGFHYGVHACEGCKGFFRRSIQQNIQYKKCLKHENCSIMRMNRNRCQQCRFKKCLSVGMSR [N41H] | -0.638 ± 0.25
32 | CKVCGDVASGFHYGVHACPGCKGFFRRSIQQNIQYKKCLKNENCSIMRMNRNRCQQCRFKKCLSVGMSR [E19P] | -0.465 ± 0.42
33 | CKVCCDVASGFHYGVHACEGCKGFFRRSIQQNIQYKKCLKNENCSIMRMNRNRCQQCRFKKCLSVGMSR [G5C] | -0.769 ± 0.18
34 | CKVCGDVASGFHYGVHACEGCKGFFRRSIQWNIQYKKCLKNENCSIMRMNRNRCQQCRFKKCLSVGMSR [Q31W] | -0.465 ± 0.12
35 | CKVCGDVASGFHYGVHACMGCKGFFRRSIQQNIQYKKCLKNENCSIMRMNRNRCQQCRFKKCLSVGMSR [E19M] | -0.884 ± 0.43
36 | CKVCGDVASGFHYGVHACEGCKGFFRRSISQNIQYKKCLKNENCSIMRMNRNRCQQCRFKKCLSVGMSR [Q30S] | -0.364 ± 0.21
37 | CKVCGDVASGFHYGVHACEGCKGFFRRSIQQNIQYKKCSKNENCSIMRMNRNRCQQCRFKKCLSVGMSR [L39S] | 0.165 ± 0.082
38 | CKVCGDVASGFHYGVHALEGCKGFFRRSIQQNIQYKKCLKNENCSIMRMNRNRCQQCRFKKCLSVGMSR [C18L] | -0.692 ± 0.17
39 | CKVCGDVASGFHYGVHACEGCKGFFRRSIQQNIQYKKCLKNENCSILRMNRNRCQQCRFKKCLSVGMSR [M47L] | -0.057 ± 0.099

— the Human Domainome abundance scans (Beltran et al. 2025)
